We go through 14 sequences from the DeepSol protein solubility set.

A short description of this data set: soluble on expression in E. coli; label from the status in PepcDB or PDB records.
Consider “MGSDKIHHHHHHMITQQQIETVLGQIIDPTTGKDYLTSKAVSDIQIKQDNVSVNIELGYPAKSVLNTVHQQIEQAIRTVPGIGSITVNVTSNIIAHSAQRKLKLIPGVKNVIAVASGKGGVGKSATAVNLALALAAEGATVGILDADIYGPSQPQMLGVSGRPDSPDGKTIEPMQAHGIQMMSIGLLIDVETPMVWRGPMVTQALQQLLNDTRWHDLDYLVIDLPPGTGDIQLTLAQKIPVTGAVIVTTPQDIALLDARKGLKMFEKVGIPILGIVENMSLHTCSHCGHTEPIFGTGGGEKMCRDYNVELLGALPLDIRIREHTDAGKPSVVAEPDGQIADIYRTIARLVAAKISDMARDYSDVFTQIIMEDD”, for which the “soluble on expression in E. coli” value is “not soluble”.
The value for “MGSDKIHHHHHHVKVLVTGAAGFIGYSLATRLLARGDEVIGVDIVNDYYDPRLKEARLARLAQQGGGRFTFLRTDFADYPALTAALEGAHFDRIVHLGAQAGVRYSIENPHAYVQSNLVGHVNLLEVARHRGVEHMVYASSSSVYGGNTKLPFSVDDRVDHPLSLYAATKKADELMSETYAHLYRLPLTGLRFFTVYGPWGRPDMMMWLFTRAILAGEPIQVFNHGDMYRDFTYVDDIVSGVVACLDNPPLDDGAPKAGGSLKPHRLYNIGNHKSEHLMKVIAILEAELGRKAEMRMLPMQPGDVRQSFADIDAISGDLGYRPTTGIETGVPNFVRWYKDYHGL” was “not soluble”; that for “MLPPLPDFSLSVEQQFDLQKYRQQVRDISREDLEDLFIEVVRQKMAHENIFKGMIRQGS” was “soluble”.
The value for “MPHQSQPGFLLPAIQHHSMQGSLPGERDVTVVGGGFGGLAAAAYLARAGASVTLLEQHDTVGGRAGVLERDGFRFDTGPSWYLMPDVFERFFDHFDHDPHDFYELTRLDPQYRVFWTDGDSATIEPNRRNAHELFESYEEGAGDALATYLDRAATNYDLAMNRVVYPDRTAFRDYASTDMLPLASRLRLFGNMDDYVSRFFDHPKLRQLLEYTLVFLGGAPHNTPALYSIMSHVDLNGNVFYPEGGIAGVVDALAELAVEQGATIETGVGVNAISGRRGEFTLATDDGTRTTDLVVNNANPAYAERELLDTGGRDHAPDYWDDQTYAPSALMFYLGVEGDVEPLAHHSLVLPPDWDGHFAQLFDDPGWPDDPAFYLSVASKTDDTVAPDGHEAVVILLPIAPGLDDTPEIRAQYRDRLLGTLAAQTGVDLRDRIVVEESACVSEFSEQFGDPGGTALGLAHTLFQTGPLRPGKRDGPDGHYYVGAYTNPGIGMPMCLISGEHVTKAVIDDDPAASGSTDPLAVPGEFNFDTPTTAD” was “not soluble”; that for “MADKKAPAAGWPVANGEYVVGNPESCVAVITLGSHGLDQAAIDAGAAISGPCHTENLGIEKVVANYISNPNIRFMVIAGSEVQGHITGQCIKALYENGIGDDGGIIGAKGAIPFMENVGKEPVGRLQTQVVECIDLIDVEDKGKIADAIKNCISKDPGAFEEDPMVIELEGGAAAAGDESTSIKPTSPEMALLEARMRIVSEKMNEAAMIAKFNSGYYNGK” was “not soluble”.
As for “GPGSMELALEAMDAAEPPVSAAEKARRLALLRASSAEEARSLVALHDAAALAELRAAIMDSFPDERHDPEMSVHLDQIIWGRCPIRIDVAGAWTDTPPYAILSGGSVINVAVELNGQPPVQVYVRVREDPIIMMHSIDSGEQLSVSSFDEIRTYATMQNPFSIPKAALALCGFLPEFCATEYATLREQLAARFGGHGLEISLFVAIPTGSGLGTSSIVAGTVLRSLAEFCKLPWDNHDVCRRVLLIEQMLTAGGGWQDQYGGLFEGLKLVQCVPGLPCLPTVRWMPDSVYTDPRFAACHLLYYTGITRMAKGILGEIVRDVLLNNGATLQLLREMGGPTTAAMYDAITTGNYKGYARLVHRTWEQKKRLDDGVCNPTVQSIVDIVEPYVWGLTLPGAGGGGYMYMCAKDEACARRIRELLTANPPNGNARFVEMSVSASGLQISRS”, the “soluble on expression in E. coli” value was “not soluble”.
The value for “MSLTGREILEKLERREFTREVLKEALSINDRGFNEALFKLADEIRRKYVGDEVHIRAIIEFSNVCRKNCLYCGLRRDNKNLKRYRMTPEEIVERARLAVQFGAKTIVLQSGEDPYYMPDVISDIVKEIKKMGVAVTLSLGEWPREYYEKWKEAGADRYLLRHETANPVLHRKLRPDTSFENRLNCLLTLKELGYETGAGSMVGLPGQTIDDLVDDLLFLKEHDFDMVGIGPFIPHPDTPLANEKKGDFTLTLKMVALTRILLPDSNIPATTAMGTIVPGGREITLRCGANVIMPNWTPSPYRQLYQLYPGKICVFEKDTACIPCVMKMIELLGRKPGRDWGGRKRVFETVEGHHHHHH” was “soluble”; that for “MGSDKIHHHHHHLPALRLLAGPTAYEQLEANGLDQSLFTQLFAASGGPKWLAIAGLDKYLFSEFFQDREDPLYTMGASSGAWRLACMAQQDPLAAYERLEHFYIHQNYEKKPTREQVSAQVLQIVDGILGEQQGADIIANPLIRHHMVACRARHLNRIHAKFGLMMGLSMAAVSNVVNRKSLGWHFERVILSHKDAASPFRRLKDLPTKHVELTQDNIRHGLLATGSIPLLLDPVKDLQGSPKGHYYDGGITDYHFDMPLPAATGLSLYPHFYPYMSPGWFDKSLLWRKAKANYHNGLILAPSKQFIASLPFSKIPDREDFKNLDTKSRITYWQQSVQQSQVLADEFAEIVASGTIMDRIERL” was “not soluble”.
The value for “MSLGVKVKVINGGVLISQDLSCAGQVSTSVALPILGACGARPTVLPTAILSTHTGFKDNTYLDLSNEMSRIMSHWQKIDLEFKAIYLGYLGKEALDFWIKNIEQIIRTNQVVLIDPAMADHGKMYRGLDTDYIKKMRQLIFKATILTPNITEAAFLLNEDIPENSLEKAQVLAEKLVQRFAIPNVIITGITLSKDKIGEVGITKEGKWSIIQEKMPGDFFGTGDMFASAFLAAVLYGKNLEKSCAIAAEFVKLAIIDMDQKLESLFGPNYAAGLPWLLSELEKEGHHHHHH” was “soluble”.
The value for “GMEKLSAIKKPDINVADAWEQYWNKTLVNSTPVLWDANVERAVVVDLPRFELLFNPELPLIDFACGNGTQTKFLSQFFPRVIGLDVSKSALEIAAKENTAANISYRLLDGLVPEQAAQIHSEIGDANIYMRTGFHHIPVEKRELLGQSLRILLGKQGAMYLIELGTGCIDFFNSLLEKYGQLPYELLLVMEHGIRPGIFTAEDIELYFPDFEILSQGEGLFQSIHKLPDGNYATPPAFWAVIKHR” was “soluble”.
In the case of “MANSLRNVNDYDPFKYRPSYFDLEAPTESFALGKFVDAIEVKQMALDAFSESSMVSIATSQLPKTAYTATSFIESEYYSFPYLFNDQKYYWDYFDYKIPAADFAVLELELDLNNQQDQQIKDHFIDPAIKAYKQLGDSTGLFATKPLTEYQNDTHYLLGYPVVPTDHTQLWECKQGAERFSYGYFYSNMARLTKNLRQGDPNAGSKTHIEYSNELLDKDSMDQGIVRFSTFLGANINYHDYDYRQQGYGLTLTDTNLPGGSSGSLVFNQDKKISSIYSAATESDSVGYAQLLRTPRDVNGISVVSQSYDLIFGDSNTKRYYAMFAKKQQTHLYSEILKSTDEQYRYVVDKQFN”, the “soluble on expression in E. coli” value is listed as “soluble”.
The value for “MNNETTTLISLKEAMKRVDHKLQALETQFKELDFTKDNLMQKFEHHSKALASQAAQDEMWTAVRALQLTSMELNILYSYVIEVLICLHTRVLEKLPDLVRGLPTLASVLRRKVKNKRVRVVWESILEECGLQEGDITALCTFFIARGNKAEHYTAKVRQMYIRDVTFLITNMVKNQALQDSLLRAVQVIEKGKAVRTPEKQKSSLEELIPSVKN” was “soluble”; that for “MGSDKIHHHHHHMENDILKYQKAYNTIVKLLKSNEKVLATMVFGSIVSGDLWEESDIDLFVIIDEEMANIKNIYMEQNDVPIHIKLMGKNKFVLLNENDIKGGFFHRIFASSKLVFSKDKDITEKYDSGRYYPDIDREKWNMVYISDLLKSLGLCKKYLNNKRIYTAYYFSVKCVEEFSKLYINHSGYMVNKDDVNMLTNINGDFKNYIDNLFFSKDNVEEAIKEVVDKIEEFINKNIKSITAILIDYMRDKDKSLSAEDINTDPVFNDFSINFEEILSKLWEFNIIKKGTRKYSIKDGKALCMENVYYL” was “not soluble”.
The value for “MKVELQISETYEEEKLIVQAPQETEKVQKVIEFAENLDQREKIKGKIDDQVYLVEIGKIQRFYIENRKVLAETASQTYSIDLRLYQVLKLLPTNFIQISQSEIINIDSISHLKLTPNGLVEIFLKNESFTYSSRRYLKTIKEKLEL” was “not soluble”.
